US20090118195A1, “Molecules Which Promote Hematopoiesis” (priority 2004, published 2009)
*1 amine or outer side, *2 acyl side, *3 side chain or, on linkers, in order; H or OH if unused. Primed or numbered codes have the meaning given here. Where no end group is shown, it is not given here. [ ]: non-standard residue; d: D form. Als″ = residue of 5-aminolevulinic acid, O=C(CCC(=O)[*:2])CN[*:1]

T1: EPO receptor (on TF-1 cells) (UniProt P19235 25-508, limits assumed)
T1 sequence (looked up): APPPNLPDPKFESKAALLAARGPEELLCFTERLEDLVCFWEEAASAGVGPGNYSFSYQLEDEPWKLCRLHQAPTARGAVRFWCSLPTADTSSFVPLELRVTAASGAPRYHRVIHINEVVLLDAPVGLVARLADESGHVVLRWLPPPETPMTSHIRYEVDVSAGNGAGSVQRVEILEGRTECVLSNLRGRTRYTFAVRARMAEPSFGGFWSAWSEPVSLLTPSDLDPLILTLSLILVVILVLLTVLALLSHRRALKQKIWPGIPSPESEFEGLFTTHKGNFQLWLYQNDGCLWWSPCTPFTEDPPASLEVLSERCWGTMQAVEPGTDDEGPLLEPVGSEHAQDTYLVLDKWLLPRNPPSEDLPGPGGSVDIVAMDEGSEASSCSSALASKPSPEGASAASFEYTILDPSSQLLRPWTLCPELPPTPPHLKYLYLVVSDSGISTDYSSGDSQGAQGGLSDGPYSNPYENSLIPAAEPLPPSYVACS


biological target: T1, EPO receptor (on TF-1 cells); assay: cell-based or functional assay; conditions: not given

Row | EC50, TF-1 cell proliferation (MTT assay) [µM] | Molecule
1 | 4.97 | GGTYSCHFGRLTWVCKKQGG [SEQ ID NO 6: GGTYSCHFGRLTWVCKKQGG]
2 | 4.66 | GGTYSCHFGKLTWVCKPQGG [SEQ ID NO 4: GGTYSCHFGKLTWVCKPQGG]
3 | 5.26 | GGTYSCHF[Als″]LTWVCKPQGG (cysteine pairing not given here) [SEQ ID NO 7: GGTYSCHF-(Als)-LTWVCKPQGG]
4 | 2.52 | GGTYSCHFGPLTWVCKKQGG
5 | 5 | GGTYSCHF[Als″]LTWVCKKQGG (cysteine pairing not given here) [SEQ ID NO 8: GGTYSCHF-(Als)-LTWVCKKQGG]
6 | 3.28 | GGTYSCHFGKLTWVCKKQGG [SEQ ID NO 2: GGTYSCHFGKLTWVCKKQGG]
7 | 5.16 | GGTYSCHFGRLTWVCKPQGG [SEQ ID NO 5: GGTYSCHFGRLTWVCKPQGG]
8 | 5.04 | GGTYSCHFAKLTWVCKKQGG

system: TF-1 cells; assay: Proliferation assay with TF-1 cells by MTT (monomers); assay type: cell-based; conditions: MTT-assay data, dose-response calculated with GraphPad
Procedure: Proliferation assay with TF-1 cells by MTT
TF-1 Cells in logarithmic growth phase (˜2.10^5-1.10^6 cells/ml; RPMI medium; 20% fetal calf serum; supplemented with Penicillin, streptomycin, L-Glutamine; 0.5 ng/ml Interleukin 3) are washed (centrifuge 5 min. 1500 rpm and resuspend in RPMI complete without IL3 at 500.000 cells/ml) and precultured before start of the assay for 24 h without IL-3. At the next day the cells are seeded in 24- or 96-well plates usually using at least 6 concentrations and 4 wells per concentration containing at least 10.000 cells/well per agent to be tested. Each experiment includes controls comprising recombinant EPO as a positive control agent and wells without addition of cytokine as negative control agent. Peptides and EPO-controls are prediluted in medium to the desired concentrations and added to the cells, starting a culture period of […] under standard culture conditions (37° C., 5% carbon dioxide in the gas phase, atmosphere saturated with water). Concentrations always refer to the final concentration of agent in the well during this 4-day culture period.
At day 4, prior to start of the analysis, a dilution series of a known number of TF-1 cells is prepared in a number of wells (01250015000/10000120000150000 cells/well in 100 μl medium). These wells are treated in the same way as the test wells and later provide a calibration curve from which cell numbers can be determined. Having set up these reference wells, MTS and PMS from the MTT proliferation kit (Promega, CellTiter 96 Aqueous non-radioactive cell proliferation assay) are thawed in a 37° C. waterbath and 100 μl of PMS solution are added to 2 ml of MTS solution. 20 μl of this mixture are added to each well of the assay plates and incubated at 37° C. for 3-4 h. 25 μl of 10% sodium dodecylsulfate in water are added to each well prior to measurement E492 in an ELISA Reader.
Using graphical evaluations as shown in FIGS. 17 and 18 based on calculations of the dose-response relationship using the program GraphPad the following EC50 values were determined on the basis of MTT-assay data: […]

Row | Molecule | EC50 values | EC50 [µM]
9 | GGTYSCHFGGLTWVCKPQGG | no activity | –
10 | GGTYSCHF-(Als)-LTWVCKPQGG [SEQ ID NO 7] | – | 5.26
11 | GGTYSCHF-(Als)-LTWVCKKQGG [SEQ ID NO 8] | – | 5
